Patent publication CN116284353A (HUASONG SHANGHAI BIOMEDICAL TECH CO LTD, dated 2023)

Molecular target: T1, EV A71 VLP (Enterovirus A71, UniProt Q66478 2-862)
T1 construct: Multi-subunit particle
T1 sequence: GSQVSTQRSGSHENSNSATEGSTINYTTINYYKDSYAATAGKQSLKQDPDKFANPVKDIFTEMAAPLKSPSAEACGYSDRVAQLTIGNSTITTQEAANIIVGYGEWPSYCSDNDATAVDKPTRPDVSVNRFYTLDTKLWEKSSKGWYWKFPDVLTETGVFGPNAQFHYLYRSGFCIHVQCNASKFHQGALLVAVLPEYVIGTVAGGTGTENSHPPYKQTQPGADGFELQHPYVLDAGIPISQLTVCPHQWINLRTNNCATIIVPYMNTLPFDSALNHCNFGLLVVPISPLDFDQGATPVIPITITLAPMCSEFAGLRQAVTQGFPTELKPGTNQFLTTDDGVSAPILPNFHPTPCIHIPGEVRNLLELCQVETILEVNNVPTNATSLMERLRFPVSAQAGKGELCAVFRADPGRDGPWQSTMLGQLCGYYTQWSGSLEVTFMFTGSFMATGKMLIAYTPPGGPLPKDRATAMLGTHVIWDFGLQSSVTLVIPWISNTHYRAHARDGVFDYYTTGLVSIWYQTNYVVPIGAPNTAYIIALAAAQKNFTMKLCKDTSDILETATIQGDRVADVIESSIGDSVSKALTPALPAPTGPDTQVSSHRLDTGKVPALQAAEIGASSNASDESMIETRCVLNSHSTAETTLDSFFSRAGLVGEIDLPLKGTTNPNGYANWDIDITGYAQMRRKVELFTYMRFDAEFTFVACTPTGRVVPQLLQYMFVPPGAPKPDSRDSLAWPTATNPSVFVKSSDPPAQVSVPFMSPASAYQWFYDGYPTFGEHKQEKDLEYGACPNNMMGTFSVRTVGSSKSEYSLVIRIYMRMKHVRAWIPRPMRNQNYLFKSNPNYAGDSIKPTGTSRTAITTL
Assay: Western blot on denatured VLP

B1: 单克隆抗体3C4 (antibody, mouse IgG1, kappa, V domains shown)
VH: QVTLKESGPGILQPSQTLSLTCSFSGFSLSTSGMGVSWIRQPSGKGLEWLAHIWWDDDKRYNPALKSRLTISKDTSNNQVFLRIASVDTADTATYYCVRIGGYFWGQGTSVTVSS
VL: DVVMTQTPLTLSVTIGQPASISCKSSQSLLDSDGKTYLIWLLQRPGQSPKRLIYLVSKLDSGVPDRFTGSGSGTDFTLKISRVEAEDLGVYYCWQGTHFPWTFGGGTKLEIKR
notes: Mouse IgG1 kappa; also called 3C4单抗; 杂交瘤细胞株3C4
binding result: no binding (tested: 1μg/mL)
